# Earlier results as cited in US7930157B2, “Computational method and apparatus for predicting polypeptide aggregation or solubility” (Cambridge University Technical Services Ltd., priority 2003, dated 2011).
# Where two headings read alike, the source gives them in different places. Where no end group is shown, it is not given here.
# Tests used:
# [1] = experimental aggregation rate of mutant relative to wild type; growth phase only
# [2] = normalised from 0 (high β-sheet propensity) to 1 (low); glycine from theoretical calculations
# [3] = for hydrophobicity: neutral pH, based on partition coefficients from water to octanol
# [4] = for charge: neutral pH
# [5] = compared to the human calcitonin sequence
# [6] = pH lower than 6.0, histidine positively charged
# [7] = τ obtained using T1 (nucleation time)
# [8] = τ obtained using T2 (half time of aggregation)
compound,measurement,setting,value
"I26A: single-point mutation I26A of amylin (islet amyloid polypeptide), ref. 11 (KCNTATCATQRLANFLVHSSNNFGAALSSTNVGSNTY; ends and bridges not checked; cysteine pairing not given here; UniProt P10997 34-70, looked up, variant I26A)",observed ln (νmut/νwt),[1],−2.39
"F23A: single-point mutation F23A of amylin (islet amyloid polypeptide), ref. 11 (KCNTATCATQRLANFLVHSSNNAGAILSSTNVGSNTY; ends and bridges not checked; cysteine pairing not given here; UniProt P10997 34-70, looked up, variant F23A)",observed ln (νmut/νwt),[1],−2.65
"L27A: single-point mutation L27A of amylin (islet amyloid polypeptide), ref. 11 (KCNTATCATQRLANFLVHSSNNFGAIASSTNVGSNTY; ends and bridges not checked; cysteine pairing not given here; UniProt P10997 34-70, looked up, variant L27A)",observed ln (νmut/νwt),[1],−0.93
"NCCCC[C@H](N)C(=O)O [Lys (K), Lys]",β-sheet propensity,[2],0.34
same,hydrophobicity,[3],0.662 kcal/mol
same,charge,[4],+1
"N[C@@H](Cc1c[nH]cn1)C(=O)O [His (H), His]",hydrophobicity (value in brackets),[3]; [6],0.686 kcal/mol
same,charge (value in brackets),[4]; [6],+1
"N22A: single-point mutation N22A of amylin (islet amyloid polypeptide), ref. 11 (KCNTATCATQRLANFLVHSSNAFGAILSSTNVGSNTY; ends and bridges not checked; cysteine pairing not given here; UniProt P10997 34-70, looked up, variant N22A)",observed ln (νmut/νwt),[1],0.69
"S20G: single-point mutation S20G of amylin, ref. 12 (KCNTATCATQRLANFLVHSGNNFGAILSSTNVGSNTY; ends and bridges not checked; cysteine pairing not given here; UniProt P10997 34-70, looked up, variant S20G)",observed ln (νmut/νwt),[1],1.01
"N[C@@H](CCC(=O)O)C(=O)O [Glu (E), Glu]",hydrophobicity,[3],0.696 kcal/mol
"N[C@@H](Cc1c[nH]c2ccccc12)C(=O)O [Trp (W), Trp]",β-sheet propensity,[2],0.24
same,hydrophobicity,[3],-0.509 kcal/mol
same,charge,[4],0
"G24A: single-point mutation G24A of amylin (islet amyloid polypeptide), ref. 11 (KCNTATCATQRLANFLVHSSNNFAAILSSTNVGSNTY; ends and bridges not checked; cysteine pairing not given here; UniProt P10997 34-70, looked up, variant G24A)",observed ln (νmut/νwt),[1],−0.03
"SEQ ID NO 14: calcitonin sequence reported in Zurdo & Dobson (WO 02/083734), 6 modified positions when compared to the human sequence (CGNLSTCMLGKLTQELRKLHTFPQTAIGVGAP; ends and bridges not checked; cysteine pairing not given here)",Observed (τmut/τwt),[5]; [7],300
same,observed ln (νmut/νwt),[5]; [7],−5.71
same,Observed (τmut/τwt),[5]; [8],100
same,observed ln (νmut/νwt),[5]; [8],−4.61
